Experimental data from paper PMC11389852, “Developing deprotectase biocatalysts for synthesis†” (Faraday Discussions, 2024).

Biological target: the molecule itself
Test: SEC; size exclusion chromatography of recombinant Cbz-ase (Fig. S32); conditions not told in the main text

B1: Sphingomonas paucimobilis Cbz-ase (amidohydrolase), recombinant (enzyme)
chain: MVQPTPTPQSELPGLIARDMEGLMTLYRDLHANPELSLQEVNTAAKLAKRLKAMKFDVTEKVGGTGVVAVMKNGSGPVLLIRADMDGLPVVEQTGLDFASKVRTKTPEGVETGVMHACGHDTHMTAFIETAKLLSSSKDKWKGTLVMILQPAEEVGKGARDMLEDGLYTRFPRPTHAIAFHDAANLQAGVVGYTPGYALANVDSVDIVVKGLGGHGAYPQTTRDPIVLGSRIVTSLQTLVSREQDPQDPAVVTVGSFQAGAKHNIIPDQALLLLTVRSYSDETRAKLIKGIERIARGEAIAAGVPDDKMPVVSVKDEFTPSTYNPPEFAEQMGALLKGHFAEGRVVKTPAVMGGEDFGRFYRADKSINSFIFWVGGVPADKMAAAQAGQITLPSLHSPFWAPEADKVIATASEAMTVLAMDILKKD
- stoichiometry N: 4
